Source: paper PMC11481066 (2024)
Positions count from the first letter of the chain named. In names and notes the source's numbering stands. Read-outs that look alike come from different tables or passages of the source.

B1: H11-H4 L106F mutant nanobody (VHH)
VHH: QVQLVESGGGLMQAGGSLRLSCAVSGRTFSTAAMGWFRQAPGKEREFVAAIRWSGGSAYYADSVKGRFTISRDKAKNTVYLQMNSLKYEDTAVYYCAQTHYVSYLFSDYATWPYDYWGQGTQVTVSS
B2: H11-H4 nanobody, wild type (VHH)
VHH: B1 VHH with F106L
B3: H11-H4 H100Y mutant nanobody (VHH)
VHH: B1 VHH with H100Y, F106L
B4: H11-H4 L106W mutant nanobody (VHH)
VHH: B1 VHH with F106W
B5: H11-H4 V102Y mutant nanobody (VHH)
VHH: B1 VHH with V102Y, F106L
B6: ab8 nanobody, wild type (VHH)
VHH: EVQLVESGGGLVQPGGSLRLSCAASGFTFDDYAMSWVRQAPGKGLEWIGRMYNNGRTSYNPSLKSLVTISRDNSKNTLYLQMNSLRAEDTATYYCARDNLGYRPSENLYGMDVWGQGTTVTVSS
B7: ab8 E127W mutant nanobody (VHH)
VHH: B6 VHH with E106W

Legend:
Test in all cases: BLI
[1] = target: T1, SARS-CoV-2 spike protein receptor binding domain, wild-type (Wuhan type) (SARS-CoV-2, UniProt P0DTC2)
[2] = target: T1, SARS-CoV-2 spike protein receptor …; remark: listed apart in the source
[3] = target: T1, SARS-CoV-2 spike protein receptor …; remark: listed apart in the source
[4] = target: T1, SARS-CoV-2 spike protein receptor …; remark: listed apart in the source

| Binder | Kd [1] [nM] | koff [2] [s⁻¹] | koff [3] [s⁻¹] | Kd [4] [nM] |
| --- | --- | --- | --- | --- |
| B1 | 164 | 0.149 |  |  |
| B2 | 63.6 | 0.0406 |  |  |
| B3 | 238 | 0.145 |  |  |
| B4 | 132 | 0.739 |  |  |
| B5 | 180 | 0.543 |  |  |
| B6 |  |  | 0.0291 | 51.4 |
| B7 |  |  | 0.0148 | 2.18 |
